We go through 11 molecules from patent US20210324028A1 (Pfizer, published 2021).

Substitutions are numbered along the chain they refer to. Numbers in names are those of the source.

T1: human IL-2Rβ (human, UniProt P14784 27-240, limits assumed)
T1 construct: also called hIL-2Rβ; IL-2 receptor beta
T1 sequence (looked up): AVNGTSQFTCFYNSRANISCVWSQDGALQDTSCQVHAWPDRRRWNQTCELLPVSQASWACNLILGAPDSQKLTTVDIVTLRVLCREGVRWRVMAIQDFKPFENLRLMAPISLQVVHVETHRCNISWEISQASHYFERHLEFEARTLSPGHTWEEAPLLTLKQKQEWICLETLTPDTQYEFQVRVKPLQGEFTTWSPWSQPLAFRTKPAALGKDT

B1: hIL-15 V49R/D30P (ligand)
chain: NWVNVISDLKKIEDLIQSMHIDATLYTESPVHPSCKVTAMKCFLLELQRISLESGDASIHDTVENLIILANNSLSSNGNVTESGCKECEELEEKNIKEFLQSFVHIVQMFINTGGGGSGHHHHHHHHGGGLNDIFEAQKIEWHE
B2: hIL-15 V49R/L69P (ligand)
chain: B1 chain with P30D, L69P
B3: hIL-15 V49R/L69K (ligand)
chain: B1 chain with P30D, L69K
B4: hIL-15 V49R/V31K (ligand)
chain: B1 chain with P30D, V31K
B5: hIL-15 V49R/I68P (ligand)
chain: B1 chain with P30D, I68P
B6: xmPD-1-hIL15 V49R/E46G/E64Q/D30N/I68S (other)
heavy 1: HHHHHHHHGGGGSGSGGEVQLVESGGGLVKPGGSLELSCAASGFTFSSYWMSWVRQAPEKGLEWVAAISPSGGSTYYADSVKGRFTISRDNAKNTLFLQMTSLRSEDTAMYYCAKESWGAYYDLWGQGTTVTVSSASTKGPSVFPLAPCSRSTSESTAALGCLVKDYFPEPVTVSWNSGALTSGVHTFPAVLQSSGLYSLSSVVTVPSSNFGTQTYTCNVDHKPSNTKVDKTVERKCRVRCPRCPAPPVAGPSVFLFPPKPKDTLMISRTPEVTCVVVAVSHEDPEVQFNWYVDGVEVHNAKTKPREEQFNSTFRVVSVLTVVHQDWLNGKEYKCKVSNKGLPSSIEKTISKTKGQPREPQVYTLPPSREEMTKNQVSLTCLVKGFYPSDIAVEWESNGQPENNYKTTPPMLDSDGSFFLYSRLTVDKSRWQQGNVFSCSVMHEALHNHYTQKSLSLSPGK
heavy 2: EVQLVESGGGLVKPGGSLELSCAASGFTFSSYWMSWVRQAPEKGLEWVAAISPSGGSTYYADSVKGRFTISRDNAKNTLFLQMTSLRSEDTAMYYCAKESWGAYYDLWGQGTTVTVSSASTKGPSVFPLAPCSRSTSESTAALGCLVKDYFPEPVTVSWNSGALTSGVHTFPAVLQSSGLYSLSSVVTVPSSNFGTQTYTCNVDHKPSNTKVDKTVERKCEVECPECPAPPVAGPSVFLFPPKPKDTLMISRTPEVTCVVVAVSHEDPEVQFNWYVDGVEVHNAKTKPREEQFNSTFRVVSVLTVVHQDWLNGKEYKCKVSNKGLPSSIEKTISKTKGQPREPQVYTLPPSREEMTKNQVSLTCEVKGFYPSDIAVEWESNGQPENNYKTTPPMLDSDGSFFLYSKLTVDKSRWQQGNVFSCSVMHEALHNHYTQKSLSLSPGSGGGGGTSATATPGANWVNVISDLKKIEDLIQSMHIDATLYTESNVHPSCKVTAMKCFLLGLQRISLESGDASIHDTVQNLISLANNSLSSNGNVTESGCKECEELEEKNIKEFLQSFVHIVQMFINT
light: DIVMTQSPSSLSVSAGDKVTMSCRASQGISSWLAWYQQKPWQPPKLLIYKASTLESGVPDRFTGSGSGTDFTLTISSVQAEDLAVYYCQQSYSTPWTFGGGTKLEIKGTVAAPSVFIFPPSDEQLKSGTASVVCLLNNFYPREAKVQWKVDNALQSGNSQESVTEQDSKDSTYSLSSTLTLSKADYEKHKVYACEVTHQGLSSPVTKSFNRGEC
notes: not restated for this mutant; also called xmPD1-hIL15_V49R-E46G-E64Q-I68S-D30N
B7: xmPD-1-hIL15 V49R/E46G/E64Q/D30N/N4K (other)
heavy 1: B6 heavy 1
heavy 2: B6 heavy 2 with N462K, S526I
light: B6 light
notes: not restated for this mutant; also called xmPD1-hIL15_V49R-E46G-N4K-E64Q-D30N
B8: xmPD-1-hIL15 V49R/E46G/E64Q/D30N/N4K/M109A (other)
heavy 1: B6 heavy 1
heavy 2: B6 heavy 2 with N462K, S526I, M567A
light: B6 light
notes: not restated for this mutant; also called xmPD1-hIL15_V49R-E46G-E64Q-N4K-D30N-M109A; xmPD-1-hIL15 VS49R/E46G/E64Q/D30N/N4K/M109A
B9: xmPD-1-hIL15Rasu-hIL15(E64Q/D30N N4K) (other)
heavy 1: B6 heavy 1
heavy 2: EVQLVESGGGLVKPGGSLELSCAASGFTFSSYWMSWVRQAPEKGLEWVAAISPSGGSTYYADSVKGRFTISRDNAKNTLFLQMTSLRSEDTAMYYCAKESWGAYYDLWGQGTTVTVSSASTKGPSVFPLAPCSRSTSESTAALGCLVKDYFPEPVTVSWNSGALTSGVHTFPAVLQSSGLYSLSSVVTVPSSNFGTQTYTCNVDHKPSNTKVDKTVERKCEVECPECPAPPVAGPSVFLFPPKPKDTLMISRTPEVTCVVVAVSHEDPEVQFNWYVDGVEVHNAKTKPREEQFNSTFRVVSVLTVVHQDWLNGKEYKCKVSNKGLPSSIEKTISKTKGQPREPQVYTLPPSREEMTKNQVSLTCEVKGFYPSDIAVEWESNGQPENNYKTTPPMLDSDGSFFLYSKLTVDKSRWQQGNVFSCSVMHEALHNHYTQKSLSLSPGSGGGGGTSATATPGAITCPPPMSVEHADIWVKSYSLYSRERYICNSGFKRKAGTSSLTECVLNKATNVAHWTTPSLKCIRDPALVHQRPAPPSGGSGGGGSGGGSGGGGSGGNWVKVISDLKKIEDLIQSMHIDATLYTESNVHPSCKVTAMKCFLLELQVISLESGDASIHDTVQNLIILANNSLSSNGNVTESGCKECEELEEKNIKEFLQSFVHIVQMFINT
light: B6 light
notes: not restated for this mutant
B10: xmPD-1-hIL15Rasu-hIL15(E64Q/D30N/M109A) (other)
heavy 1: B6 heavy 1
heavy 2: B9 heavy 2 with K559N, M664A
light: B6 light
notes: not restated for this mutant
B11: xmPD-1-hIL15 V49R/E46G/E64Q/D30N/I68S/M109A (other)
heavy 1: B6 heavy 1
heavy 2: B6 heavy 2 with M567A
light: B6 light
notes: not restated for this mutant; also called xmPD1-hIL15_V49R-E46G-E64Q-I68S-D30N-M109A

The target of one test is T2, human IL-15Rα (human, UniProt Q13261 31-205, limits assumed).
T2 construct: also called hIL-15Rα; IL-15 receptor alpha
T2 sequence (Q13261 31-205 limits assumed): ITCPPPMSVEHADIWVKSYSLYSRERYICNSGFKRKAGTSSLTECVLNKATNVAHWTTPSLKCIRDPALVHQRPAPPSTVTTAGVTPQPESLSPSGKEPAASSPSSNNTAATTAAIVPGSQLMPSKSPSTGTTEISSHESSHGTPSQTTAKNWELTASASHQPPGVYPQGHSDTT
The experiment in a line: SPR 37C.
On to B1, for which the binding result was “no binding”.

With B2, the binding result is given as “no binding”.

Take B3: the binding result is reported as “no binding”.

Turning to B4, the binding result is “no binding”.

Take B5: the binding result was “no binding”.

Another test deals with T1, human IL-2Rβ. The experiment in a line: SPR 37C.
In the case of B2, the binding result is listed as “no binding”.

For B3, the binding result is given as “no binding”.

On to B5, for which the binding result is “no binding”.

Another test has as its target T1, human IL-2Rβ. Description: SPR, steady state. Background: SPR reads the build-up and loss of mass on a sensor chip optically.
B4 showed a Kd greater than 500 nM.

A further test concerns the target T2, human IL-15Rα. Description: SPR 37C, fusion captured by anti-human Fc. The protocol: (§1) Anti-human Fc sensor chips were prepared at 25° C. with a running buffer of 10 mM HEPES, 150 mM NaCl, 0.05% (v/v) Tween-20, pH 7.4. All surfaces of a Biacore CM4 sensor chip were activated with a 1:1 (v/v) mixture of 400 mM EDC and 100 mM NHS for 7 minutes, at a flow rate of 10 μL/min. An anti-human Fc reagent (Goat anti-human IgG Fc-γ specific, SouthernBiotech, Birmingham, Ala., Catalog #2014-01) was diluted to 50 μg/mL in 10 mM sodium acetate (pH 4.5) and injected on all flow cells for 7 minutes at 20 μL/min. All flow cells were blocked with 100 mM ethylenediamine in 200 mM Borate buffer pH 8.5 for 7 minutes at 10 μL/min.
(§2) All protein interaction experiments were performed at 37° C. using a running buffer of 10 mM HEPES, 150 mM NaCl, 0.05% (v/v) Tween-20, pH 7.4, 1 mg/mL BSA. Anti-PD-1-hIL-15 fusion proteins were captured at 10 μg/mL at a flow rate of 10 μL/min for 2 minutes. Different fusion proteins were captured in flow cells 2, 3 and 4. No protein was captured onto flow cell 1 which was used as a reference surface. […] After each analyte injection, dissociation was monitored for 5 minutes followed by regeneration of all flow cells with three 60-second injections of 75 mM phosphoric acid. […] For kinetic analysis, the double-referenced sensorgrams were fit globally to a simple 1:1 Langmuir with mass transport binding model using Biacore T200 Evaluation Software version 2.0. For steady-state affinity analysis, the double-referenced equilibrium binding responses were fit with a 1:1 Langmuir steady-state model using Biacore T200 Evaluation Software version 2.0.
On to B6, for which the binding result was “no binding (tested: 3000 nM)”.

Regarding B7, the binding result is listed as “no binding (tested: 3000 nM)”.

Consider B8, for which the binding result is “no binding (tested: 3000 nM)”.

For B9, the binding result is given as “no binding (tested: 3000 nM)”.

In the case of B10, the binding result is reported as “no binding (tested: 3000 nM)”.

As for B11, the binding result is reported as “no binding (tested: 3000 nM)”.

Another test addresses T1, human IL-2Rβ. The experiment in a line: SPR 37C, fusion captured by anti-human Fc. The protocol: as §1, §2
In the case of B6, the binding result is reported as “no binding (tested: 3000 nM)”.

With B7, the binding result is “no binding (tested: 3000 nM)”.

With B8, the binding result is “no binding (tested: 3000 nM)”.

As for B11, the binding result is given as “no binding (tested: 3000 nM)”.

In a further test the target is T1, human IL-2Rβ. The experiment in a line: SPR, steady state, fusion captured. The protocol:
as §1, §2
B9 displayed a dissociation constant Kd of 767 nM.

Take B10: the Kd was 315 nM.

One may read the Kd as a measure of binding affinity in units of concentration. Low readings indicate tighter binding, high ones weaker binding.
